{
  "source": "patent US20090291133A1",
  "about": "“METHODS AND COMPOSTIONS FOR ENHANCING TRANSDERMAL DRUG DELIVERY” (NATIONAL HEALTH RESEARCH INSTITUTES, priority 2008, published 2009)",
  "origin": "cited, not measured here",
  "molecules": {"B1": {"name": "papain (protein, UniProt P00784 134-345, looked up)", "Papain": "IPEYVDWRQKGAVTPVKNQGSCGSCWAFSAVVTIEGIIKIRTGNLNEYSEQELLDCDRRSYGCNGGYPWSALQLVAQYGIHYRNTYPYEGVQRYCRSREKGPYAAKTDGVRQVQPYNEGALLYSIANQPVSVVLEAAGKDFQLYRGGIFVGPCGNKVDHAVAAVGYGPNYILIKNSWGTGWGENGYIRIKRGTGNSYGVCGLYTSSFYPVKN", "notes": "proteolytic enzyme used as permeability enhancer"}},
  "settings": "reported in US005534260A",
  "note": "Where two headings read alike, the source gives them in different places.",
  "data": [
    {"molecule": "B1", "values": [
      {"measurement": "safe concentration of papain", "setting": "equivalent in solution", "result": 4, "unit": "µM"},
      {"measurement": "safe concentration of papain", "result": "around 0.093 mg/ml"}
    ]}
  ]
}
